B1: 抗PAD4抗体Lib2(4R)-1-47 (antibody, V domains shown)
VH: EVQLLESGGGLVQPGGSLRLSCAASGFTFSTYAMGWVRQAPGKGLEFVAAIRNDGSWTGYGTPYKTRFTISRDNSKNTLYLQMNSLRAEDTAVYYCAKYTGSSGGSIGAWGQGTLVTVSS
VL: SYELTQPPSVSVSPGQTARITCSGGNRNYYYGWYQQKPGQAPVTVIYANDKRPSGIPERFSGSNSGSTTTLTISGVQAEDEADYYCGTATTGKYVFGGGTKLTVLG
B2: 抗PAD4抗体Lib1(6R)-1-39 (antibody, V domains shown)
VH: EVQLLESGGGLVQPGGSLRLSCAASGFTFSTYAMGWVRQAPGKGLEFVAAIRNDGSWTGTSVNAKTRFTISRDNSKNTLYLQMNSLRAEDTAVYYCAKYTGSSGGSIGAWGQGTLVTVSS
VL: SYELTQPPSVSVSPGQTARITCSGGNRNYYYGWYQQKPGQAPVTVIYANDKRPSGIPERFSGSNSGSTTTLTISGVQAEDEADYYCGTATTGKYVFGGGTKLTVLG
B3: 抗PAD4抗体Lib2(5R)-2-25 (antibody, V domains shown)
VH: EVQLLESGGGLVQPGGSLRLSCAASGFTFSTYAMGWVRQAPGKGLEFVAAIRNDGSWTGYPPPLKGRFTISRDNSKNTLYLQMNSLRAEDTAVYYCAKYTGSSGGSIGAWGQGTLVTVSS
VL: SYELTQPPSVSVSPGQTARITCSGGNRNYYYGWYQQKPGQAPVTVIYANDKRPSGIPERFSGSNSGSTTTLTISGVQAEDEADYYCGTAYTGKYVFGGGTKLTVLG
B4: 抗PAD4抗体4-2-25 (antibody, human IgG1, lambda, V domains shown)
VH: EVQLLESGGGLVQPGGSLRLSCAASGFTFSTYAMGWVRQAPGKGLEFVAAIRNDGSWTGYPPPLKGRFTISRDNSKNTLYLQMSSLRAEDTAVYYCAKYTGSSGGSIGAWGQGTLVTVSS
VL: SYELTQPPSVSVSPGQTARITCSGGNRNYYYGWYQQKPGQAPVTVIYANDKRPSGIPERFSGSNSGSTTTLTISGVQAEDEADYYCGTAYTGKYVFGGGTKLTVLG
B5: 抗PAD4抗体3-2-37 (antibody, human IgG1, lambda, V domains shown)
VH: EVQLLESGGGLVQPGGSLRLSCAASGFTFSTYAMGWVRQAPGKGLEFVAAIRNDGSWTGIGYNQKSRFTISRDNSKNTLYLQMSSLRAEDTAVYYCGKYTGSSGGSIGAWGQGTLVTVSS
VL: SYELTQPPSVSVSPGQTARITCSGGNRNYYYGWYQQKPGQAPVTVIYANDKRPSGIPERFSGSNSGSTTTLTISGVQAEDEADYYCGTALTGKYVFGGGTKLTVLG
B6: 抗PAD4抗体2-1-47 (antibody, human IgG1, lambda, V domains shown)
VH: EVQLLESGGGLVQPGGSLRLSCAASGFTFSTYAMGWVRQAPGKGLEFVAAIRNDGSWTGYGTPYKTRFTISRDNSKNTLYLQMSSLRAEDTAVYYCAKYTGSSGGSIGAWGQGTLVTVSS
VL: SYELTQPPSVSVSPGQTARITCSGGNRNYYYGWYQQKPGQAPVTVIYANDKRPSGIPERFSGSNSGSTTTLTISGVQAEDEADYYCGTATTGKYVFGGGTKLTVLG
B7: ヒト化抗PAD4抗体G8ss (antibody, human IgG1, lambda, V domains shown)
VH: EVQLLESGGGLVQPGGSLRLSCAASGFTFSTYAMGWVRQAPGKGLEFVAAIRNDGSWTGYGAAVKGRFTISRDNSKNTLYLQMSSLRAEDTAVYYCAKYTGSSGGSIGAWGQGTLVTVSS
VL: SYELTQPPSVSVSPGQTARITCSGGNRNYYYGWYQQKPGQAPVTVIYANDKRPSGIPERFSGSNSGSTTTLTISGVQAEDEADYYCGTADTGKYVFGGGTKLTVLG
B8: ヒト化抗PAD4抗体G8 (antibody, human IgG1, lambda, V domains shown)
VH: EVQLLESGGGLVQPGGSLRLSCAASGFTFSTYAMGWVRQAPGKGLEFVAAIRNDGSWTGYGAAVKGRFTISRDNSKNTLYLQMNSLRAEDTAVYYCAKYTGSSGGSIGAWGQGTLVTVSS
VL: SYELTQPPSVSVSPGQTARITCSGGNRNYYYGWYQQKPGQAPVTVIYANDKRPSGIPERFSGSNSGSTTTLTISGVQAEDEADYYCGTADTGKYVFGGGTKLTVLG
B9: 抗PAD4抗体Lib1(6R)-2-37 (antibody, V domains shown)
VH: EVQLLESGGGLVQPGGSLRLSCAASGFTFSTYAMGWVRQAPGKGLEFVAAIRNDGSWTGIGYNQKSRFTISRDNSKNTLYLQMNSLRAEDTAVYYCGKYTGSSGGSIGAWGQGTLVTVSS
VL: SYELTQPPSVSVSPGQTARITCSGGNRNYYYGWYQQKPGQAPVTVIYANDKRPSGIPERFSGSNSGSTTTLTISGVQAEDEADYYCGTALTGKYVFGGGTKLTVLG
B10: 抗PAD4抗体3-1-39 (antibody, human IgG1, lambda, V domains shown)
VH: EVQLLESGGGLVQPGGSLRLSCAASGFTFSTYAMGWVRQAPGKGLEFVAAIRNDGSWTGTSVNAKTRFTISRDNSKNTLYLQMSSLRAEDTAVYYCAKYTGSSGGSIGAWGQGTLVTVSS
VL: SYELTQPPSVSVSPGQTARITCSGGNRNYYYGWYQQKPGQAPVTVIYANDKRPSGIPERFSGSNSGSTTTLTISGVQAEDEADYYCGTATTGKYVFGGGTKLTVLG

The target in this experiment is ヒトPAD4 (human, UniProt Q9UM07 1-663, limits assumed). Nature of the experiment: cell-based or functional assay.
ヒトPAD4, sequence (Q9UM07 whole entry): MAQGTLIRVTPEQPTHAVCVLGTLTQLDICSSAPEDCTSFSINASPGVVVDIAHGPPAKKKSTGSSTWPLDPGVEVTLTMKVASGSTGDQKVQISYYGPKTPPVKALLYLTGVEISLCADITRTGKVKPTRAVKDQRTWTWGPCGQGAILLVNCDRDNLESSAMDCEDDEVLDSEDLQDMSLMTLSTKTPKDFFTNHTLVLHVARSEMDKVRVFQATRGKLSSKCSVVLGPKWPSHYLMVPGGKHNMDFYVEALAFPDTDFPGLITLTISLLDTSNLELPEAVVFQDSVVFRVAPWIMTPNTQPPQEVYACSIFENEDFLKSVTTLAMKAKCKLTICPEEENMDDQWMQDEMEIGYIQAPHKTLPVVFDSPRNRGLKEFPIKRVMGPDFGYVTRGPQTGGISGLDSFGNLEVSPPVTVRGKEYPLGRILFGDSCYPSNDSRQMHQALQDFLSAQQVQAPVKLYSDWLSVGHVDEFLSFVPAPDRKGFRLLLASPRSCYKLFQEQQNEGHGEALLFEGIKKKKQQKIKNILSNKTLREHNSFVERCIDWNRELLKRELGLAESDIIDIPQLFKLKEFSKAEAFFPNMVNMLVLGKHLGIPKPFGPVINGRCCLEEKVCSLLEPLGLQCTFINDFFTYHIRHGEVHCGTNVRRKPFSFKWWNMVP
In the case of B1, the “ヒトPAD4酵素阻害活性 IC50 (BAEE citrullination, colorimetric)” value (shortened to “ヒトPAD4酵素阻害活性 IC50”) is 9.6 nM.
Regarding B2, the “ヒトPAD4酵素阻害活性 IC50” value was 8.7 nM.
For B3, the “ヒトPAD4酵素阻害活性 IC50” value was 8.3 nM.
As to B4, the “ヒトPAD4酵素阻害活性 IC50” value turned out to be 7.6 nM.
Then B5, with 15.3 nM; and B6, with 12.2 nM; and B7, with 20.3 nM.
With B8 the figure was 21.6 nM; with B9, 13.4 nM; with B10, 8.8 nM.
